Results taken from patent US8586530B2, “Modulation of inhibition of ferrochelatase by N-methyl protoporphyrin” (University of South Florida, priority 2006, dated 2013).
Numbering of substitutions follows the chain as printed. Names may count otherwise.

B1: P255R: murine ferrochelatase variant in which P255 was replaced with arginine (protein, UniProt P22315 54-422, looked up, variant P255R)
Ferrochelatase, mitochondrial: TTKPQAQPERRKPKTGILMLNMGGPETLGEVQDFLQRLFLDRDLMTLPIQNKLAPFIAKRRTPKIQEQYRRIGGGSPIKMWTSKQGEGMVKLLDELSPATAPHKYYIGFRYVHPLTEEAIEEMERDGLERAIAFTQYPQYSCSTTGSSLNAIYRYYNEVGQKPTMKWSTIDRWPTHPLLIQCFADHILKELNHFPEEKRSEVVILFSAHSLPMSVVNRGDPYPQEVGATVHKVMEKLGYPNPYRLVWQSKVGPVRWLGPQTDEAIKGLCERGRKNILLVPIAFTSDHIETLYELDIEYSQVLAQKCGAENIRRAESLNGNPLFSKALADLVHSHIQSNKLCSTQLSLNCPLCVNPVCRKTKSFFTSQQL
B2: P255G: murine ferrochelatase variant in which P255 was replaced with glycine (protein, UniProt P22315 54-422, looked up, variant P255G)
Ferrochelatase, mitochondrial: B1 Ferrochelatase, mitochondrial with R255G
B3: wild-type ferrochelatase: recombinant wild-type, murine ferrochelatase with N-terminal penta-histidine tag (protein, UniProt P22315 54-422, looked up)
Ferrochelatase, mitochondrial: B1 Ferrochelatase, mitochondrial with R255P

Legend:
E. coli Δvis cells = test: Genetic selection in E. coli: growth of Δvis transformants on NMPP-containing plates; type: cell-based, Escherichia coli; conditions: medium containing more than 20 μM NMPP
Procedure: To isolate Escherichia coli Δvis transformants harboring loop variants more tolerant to NMPP than wild-type ferrochelatase, 33 variants isolated from a library of 214 functional, ferrochelatase clones were plated on LB-ampicilin medium containing 0.2 μM, 2 μM or 20 μM NMPP. E. coli Δvis cells can only grow when hemin is added to the medium or when the cells are transformed with an active ferrochelatase expression plasmid. Transformants harboring a subset of the functional loop variants including K250N, V251L, P255R, P255G, K250M/V251L/W256Y and Q248P/S249G/250P/G252W were grown onto LB-ampicilin plates with increasing concentrations of NMPP. […] Based on this observation, the P255 variants were selected for further characterization.
Genetic Selection in E. coli. E. coli Δvis cells harboring plasmids encoding active, ferrochelatase variants isolated from a random sequence library of the loop motif were grown 16-18 h at 37° C. in LB agar medium containing 50 μg/mL of ampicillin and varying concentrations of NMPP. For the preparation of the NMPP-containing LB-ampicilin agar plates, a 2 mM stock solution of NMPP was made by dissolving NMPP in 20 mM NH4OH containing 2% Tween-20. The solution was filter-sterilized and kept at 4° C. The stock solution was diluted 100-, 1000- and 10000-fold to prepare LB-ampicilin plates containing 20 μM, 2 μM and 0.2 μM NMPP. Δvis cells transformed with wild-type ferrochelatase and functional variants were grown in LB medium containing 50 μg/mL ampicilin and 0.4% (w/v) glucose at 37° C., overnight, with shaking at 220 RPM. Each of the overnight cultures was diluted 20-fold into fresh medium and grown at 37° C. for ˜1 hr until OD600 reached ˜0.4-0.5. Subsequently, these cultures were diluted with LB medium by 10^6 and 100 μl aliquots of the diluted stock were spread on LB-ampicilin agar plates and LB-ampicilin agar plates containing NMPP at 0.2 μM, 2 μM and 20 μM, respectively. The plates were incubated at 37° C. for 16 hr, and the colonies on each plate were counted. […]

[1] = Steady-state kinetics of ferrochelatase and P255 variants; type: biochemical, murine; conditions: for Km: protoporphyrin, read-out: Km^PPIX
From the text: One possible explanation for these findings is that the mechanism of interaction between the enzyme and the protoporphyrin substrate differs from that for inhibitor binding. It is conceivable that the active site of ferrochelatase is optimized for interaction with the protoporphyrin substrate and retains a certain degree of plasticity towards this end. Possibly, this facilitates the induction of porphyrin deformation in the protein matrix, and in so doing, ensures the catalytic reaction to proceed. In contrast, the constraints of the active site towards NMPP are presumably more stringent than towards the protoporphyrin substrate and any alterations of the active site affect the selectivity towards NMPP. Another possible explanation, and not necessarily mutually exclusive from the former, is that mutations introduced in the active site (e.g., at the P255 position) cause an alteration of the regiospecificity of ferrochelatase, such that the mutated active site can accommodate either a regioisomer or a combination of regioisomers of NMPP different from those of the wild-type active site. It is worth noting that 1) the commercially available NMPP used in this study consists of a racemic mixture of the eight potential isomers and 2) only one NMPP isomer was identified in the crystal structure of the B. subtillis ferrochelatase.
Protein Purification. Wild-type, murine ferrochelatase and variants were over-expressed, under the control of the E. coli alkaline phosphatase promoter phoA, in BL21(DE3) cells. The purification of the recombinant proteins bearing a N-terminal penta-histidine tag, assessment of the purity by sodium dodecyl sulfate-polyacrylamide gel electrophoresis and determination of protein concentration and enzymatic activity were as described previously (Shi and Ferreira 2004).

| Molecule | colony formation of Δvis cells expressing the enzyme (E. coli Δvis cells) | kcat [1] [s⁻¹] | Km [1] [µM] |
| --- | --- | --- | --- |
| B1 | could form colonies | 0.13 ± 0.013 | 2.65 ± 0.44 |
| B2 | could form colonies | 0.0983 ± 0.0233 | 2.51 ± 0.8 |
| B3 | could not | 0.0683 ± 0.005 | 1.4 ± 0.2 |
